# Target: SARS-CoV-2 RBD tagged with a C-terminal Fc tag (SARS-CoV-2) (UniProt P0DTC2)
# Experiment: BLI
Substance,Kd,koff,kon
"(Nb1N)2, Tet-linked homodimer of VHH72 with Tet3.0 at the N terminus",13.8 nM,0.00119 s⁻¹,85800 M⁻¹ s⁻¹
"(Nb1N)3, Tet-linked homotrimer of VHH72 with Tet3.0 at the N terminus",2.31 nM,0.000566 s⁻¹,246000 M⁻¹ s⁻¹
"(Nb1N)-(Nb2_(42)), Tet-linked heterodimer of VHH72 (Tet3.0 at the N terminus) and H11-H4 (Tet3.0 at Gly42)",3.93 nM,0.000593 s⁻¹,151000 M⁻¹ s⁻¹
"(Nb1_(13))2, Tet-linked homodimer of VHH72 with Tet3.0 at Gln13",46 nM,0.00156 s⁻¹,33800 M⁻¹ s⁻¹
"(Nb1_(42))2, Tet-linked homodimer of VHH72 with Tet3.0 at Gly42",27.5 nM,0.00201 s⁻¹,73100 M⁻¹ s⁻¹

# Target: SARS-CoV-2 RBD tagged with a C-terminal Fc tag (SARS-CoV-2; strain not stated, ancestral (Wuhan-Hu-1) assumed) (UniProt P0DTC2)
# Experiment: BLI
Substance,Kd,koff,kon
"(Nb1C)2, Tet-linked homodimer of VHH72 with Tet3.0 at the C terminus",132 nM,0.0064 s⁻¹,48100 M⁻¹ s⁻¹
Nb1-Nb1 tail-to-head genetically linked dimer of VHH72,,0.00314 s⁻¹,35400 M⁻¹ s⁻¹
Nb1-Nb1-Nb1 tail-to-head genetically linked trimer of VHH72,27.9 nM,0.00156 s⁻¹,57900 M⁻¹ s⁻¹

# — publication PMC9075797
